The values below are quoted from earlier work in paper PMC5735807.

pKd: −log10 of the molar value.

The target in one series is Fas (Homo sapiens) (UniProt P25445).
The target of a further series is CD36 (Homo sapiens) (UniProt P16671).
CD36 (Homo sapiens), sequence (P16671 2-472): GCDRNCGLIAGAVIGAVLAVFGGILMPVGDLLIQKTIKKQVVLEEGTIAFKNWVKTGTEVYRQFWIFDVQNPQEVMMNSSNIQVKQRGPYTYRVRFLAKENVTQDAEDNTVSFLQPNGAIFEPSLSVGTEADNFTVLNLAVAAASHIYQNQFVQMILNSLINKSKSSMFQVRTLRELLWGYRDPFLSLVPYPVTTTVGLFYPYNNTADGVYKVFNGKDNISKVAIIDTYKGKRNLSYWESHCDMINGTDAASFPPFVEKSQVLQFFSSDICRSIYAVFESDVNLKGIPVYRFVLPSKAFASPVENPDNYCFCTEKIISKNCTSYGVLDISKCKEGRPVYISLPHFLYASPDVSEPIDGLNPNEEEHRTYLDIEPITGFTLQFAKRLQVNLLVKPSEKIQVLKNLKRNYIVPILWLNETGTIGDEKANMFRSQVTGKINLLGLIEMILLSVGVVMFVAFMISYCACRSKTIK

FasL, sequence (P48023 1-81): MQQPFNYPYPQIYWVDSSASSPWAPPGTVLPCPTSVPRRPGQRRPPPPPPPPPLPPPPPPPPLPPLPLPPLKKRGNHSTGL
TSP1, sequence (P07996 19-1170): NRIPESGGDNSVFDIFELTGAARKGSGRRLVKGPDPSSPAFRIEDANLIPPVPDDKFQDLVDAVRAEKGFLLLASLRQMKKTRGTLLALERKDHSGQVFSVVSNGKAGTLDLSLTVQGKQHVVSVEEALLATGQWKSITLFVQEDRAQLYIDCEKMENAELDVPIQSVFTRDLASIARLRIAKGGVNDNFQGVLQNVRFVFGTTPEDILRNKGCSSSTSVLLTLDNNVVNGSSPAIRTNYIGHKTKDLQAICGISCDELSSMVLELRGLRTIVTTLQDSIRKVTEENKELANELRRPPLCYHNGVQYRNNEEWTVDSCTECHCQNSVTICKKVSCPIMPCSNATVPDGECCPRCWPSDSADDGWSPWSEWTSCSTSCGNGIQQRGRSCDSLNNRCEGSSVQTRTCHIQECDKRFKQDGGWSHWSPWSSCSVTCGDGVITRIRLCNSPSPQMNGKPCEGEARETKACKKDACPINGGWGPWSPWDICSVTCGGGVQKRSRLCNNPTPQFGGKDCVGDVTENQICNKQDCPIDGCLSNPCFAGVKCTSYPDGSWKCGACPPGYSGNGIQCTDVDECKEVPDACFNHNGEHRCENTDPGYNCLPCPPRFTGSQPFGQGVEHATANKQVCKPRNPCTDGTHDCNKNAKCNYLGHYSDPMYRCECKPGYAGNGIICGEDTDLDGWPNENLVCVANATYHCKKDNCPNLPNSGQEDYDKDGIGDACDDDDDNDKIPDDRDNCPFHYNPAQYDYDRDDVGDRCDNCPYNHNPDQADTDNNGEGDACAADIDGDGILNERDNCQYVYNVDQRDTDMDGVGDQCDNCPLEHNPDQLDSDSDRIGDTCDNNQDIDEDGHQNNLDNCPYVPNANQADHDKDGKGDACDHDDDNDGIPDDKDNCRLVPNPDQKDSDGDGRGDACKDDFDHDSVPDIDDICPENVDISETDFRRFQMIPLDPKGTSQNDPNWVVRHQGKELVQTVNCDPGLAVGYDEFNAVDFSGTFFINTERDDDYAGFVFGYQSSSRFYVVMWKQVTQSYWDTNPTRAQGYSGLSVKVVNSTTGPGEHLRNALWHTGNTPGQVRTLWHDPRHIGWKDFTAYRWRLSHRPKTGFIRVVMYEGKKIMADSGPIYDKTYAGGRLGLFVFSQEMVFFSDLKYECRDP
Fas (Homo sapiens), sequence (P25445 26-335): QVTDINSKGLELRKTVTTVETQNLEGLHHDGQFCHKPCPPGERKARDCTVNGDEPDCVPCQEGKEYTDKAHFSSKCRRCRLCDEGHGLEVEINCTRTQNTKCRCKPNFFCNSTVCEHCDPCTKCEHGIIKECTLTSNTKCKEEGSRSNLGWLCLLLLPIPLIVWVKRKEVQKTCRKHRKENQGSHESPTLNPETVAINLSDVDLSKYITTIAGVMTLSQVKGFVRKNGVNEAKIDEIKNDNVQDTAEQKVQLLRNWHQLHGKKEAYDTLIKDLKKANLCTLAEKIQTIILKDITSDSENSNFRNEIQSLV

For the substance FasL (from UniProt P48023), the pKd (as a rule, −log10 of the Kd, conventionally taken in molar units) with Fas (Homo sapiens) was 9.40.

Turning to TSP1 (from UniProt P07996), the pKd in the series with CD36 (Homo sapiens) was 6.64.
